Reference: patent publication US9255256B2, “Expression of functional cytochorome P450 monooxygenase system in enterobacteria” (priority 1996, dated 2016)
Like-named read-outs stand apart in the source and are kept apart here.

Legend:
CYP3A4 [1] = details: reconstituted system, Gillam et al (1993); cited from earlier work
CYP3A4 [2] = test: Testosterone 6β-hydroxylase assay, bacterial membrane fractions; assay type: biochemical, human; details: in the presence of cumene hydroperoxide, no reductase
Target sequence in this assay (P08684 19-503 limits assumed): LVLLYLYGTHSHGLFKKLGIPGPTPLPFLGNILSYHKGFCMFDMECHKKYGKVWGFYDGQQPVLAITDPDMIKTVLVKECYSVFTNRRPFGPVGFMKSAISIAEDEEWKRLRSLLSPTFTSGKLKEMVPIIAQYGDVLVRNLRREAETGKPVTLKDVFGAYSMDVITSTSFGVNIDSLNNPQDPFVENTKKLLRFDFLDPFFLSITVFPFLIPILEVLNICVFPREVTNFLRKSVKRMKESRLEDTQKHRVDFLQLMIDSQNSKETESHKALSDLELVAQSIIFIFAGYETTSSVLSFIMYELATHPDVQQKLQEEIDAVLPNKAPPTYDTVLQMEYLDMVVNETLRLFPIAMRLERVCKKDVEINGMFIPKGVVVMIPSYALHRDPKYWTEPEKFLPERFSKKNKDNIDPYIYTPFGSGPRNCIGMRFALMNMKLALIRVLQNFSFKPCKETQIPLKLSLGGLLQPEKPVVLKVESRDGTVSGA
Experimental: Assays were carried out with cells and membrane fractions. In both cases, approximately 100 pmol P450 was incubated with shaking in TSE containing 30 mM MgCl2. The final testosterone concentration was 0.2 mM. Where membranes were used, an NADPH generating system was is added (final concentration 1 mM NADP, 5 mM glucose-6-phosphate, 1 unit glucose-6-phosphate dehydrogenase). Reactions were carried out at 37° C. for 5 minutes, then stopped by addition of 1 ml ice-cold methanol and placed on ice for 10 minutes. Following centrifugation, supernatants were diluted with an equal volume of ice-cold water, and the testosterone metabolites extracted using Isolute C18 columns (IST Ltd), and eluted in 1 ml methanol. […] The yield of the 6β-hydroxytestosterone was calculated by reference to a standard of known concentration, and this allowed determination of the specific activity of the recombinant CYP3A4 towards testosterone.
Direct determination of the catalytic activity of the expressed proteins was not possible due to the absence of P450 reductase in bacterial membranes. The P450 enzyme activity was therefore determined in the presence of cumene hydroperoxide which serves as an artificial oxygen donor for P450s.

[3] = biological target: T1, human P450 reductase fused at its N-terminus to the bacterial pelB leader sequence (bacterial; human) (UniProt P16435); test: cell-based or functional assay
T1 sequence: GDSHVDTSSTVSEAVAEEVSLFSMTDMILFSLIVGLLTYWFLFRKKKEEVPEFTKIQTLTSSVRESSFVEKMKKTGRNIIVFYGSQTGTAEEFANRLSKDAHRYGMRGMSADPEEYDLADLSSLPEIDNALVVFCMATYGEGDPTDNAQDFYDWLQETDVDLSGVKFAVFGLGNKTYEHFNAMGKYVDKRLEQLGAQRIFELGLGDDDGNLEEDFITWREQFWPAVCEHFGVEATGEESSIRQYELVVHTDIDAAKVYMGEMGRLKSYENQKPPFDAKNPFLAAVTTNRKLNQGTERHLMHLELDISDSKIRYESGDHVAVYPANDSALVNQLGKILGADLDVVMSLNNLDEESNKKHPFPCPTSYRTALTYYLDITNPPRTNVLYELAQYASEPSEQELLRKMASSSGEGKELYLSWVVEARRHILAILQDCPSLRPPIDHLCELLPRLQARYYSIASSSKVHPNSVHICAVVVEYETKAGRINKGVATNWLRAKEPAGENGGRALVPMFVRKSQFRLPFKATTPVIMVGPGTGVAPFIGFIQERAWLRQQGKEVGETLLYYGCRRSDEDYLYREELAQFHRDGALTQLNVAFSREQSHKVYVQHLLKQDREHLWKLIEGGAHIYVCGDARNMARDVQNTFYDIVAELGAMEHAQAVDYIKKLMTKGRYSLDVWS

[4] = biological target: bacterial flavodoxin/NADPH-flavodoxin reductase system or another bacterial reductase; test: cell-based or functional assay
[5] = biological target: T1, human P450 reductase fused at its N-terminus to the bacterial pelB leader sequence (bacterial; human); test: cell-based or functional assay; remark: listed apart in the source
[6] = biological target: T2, human P450 reductase fused at its N-terminus to the bacterial pelB leader sequence, P16435
T2 chain: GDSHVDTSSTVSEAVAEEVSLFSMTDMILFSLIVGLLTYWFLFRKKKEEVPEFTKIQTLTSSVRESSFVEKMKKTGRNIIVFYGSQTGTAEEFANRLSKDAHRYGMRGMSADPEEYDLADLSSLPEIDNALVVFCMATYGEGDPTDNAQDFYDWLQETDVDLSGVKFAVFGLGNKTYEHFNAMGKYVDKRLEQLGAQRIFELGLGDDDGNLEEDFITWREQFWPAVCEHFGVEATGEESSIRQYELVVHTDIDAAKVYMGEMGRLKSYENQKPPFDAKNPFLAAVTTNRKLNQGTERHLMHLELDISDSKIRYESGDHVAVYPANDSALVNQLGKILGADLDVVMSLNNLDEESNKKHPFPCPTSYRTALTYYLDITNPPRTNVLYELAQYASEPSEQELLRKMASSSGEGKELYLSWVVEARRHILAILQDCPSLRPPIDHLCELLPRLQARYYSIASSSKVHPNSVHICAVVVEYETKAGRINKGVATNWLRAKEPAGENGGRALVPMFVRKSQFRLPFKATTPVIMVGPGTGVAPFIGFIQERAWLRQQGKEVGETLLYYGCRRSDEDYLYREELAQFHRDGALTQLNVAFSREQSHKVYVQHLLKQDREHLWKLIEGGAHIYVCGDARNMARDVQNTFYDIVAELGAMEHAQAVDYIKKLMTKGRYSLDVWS

P450 reductase = test: Cytochrome c reductase activity of bacterial membrane fractions; details: membranes, expression from pCW, towards cytochrome c (FIG. 4)
Experimental: An equal volume of ice-cold distilled water was then added. The CYP3A4 content was determined using Fe^2—CO vs Fe^2+ difference spectra by adding 50 μl whole cell suspension in 1×TSE to 950 μl 100 mM Tris. Cl (pH 7.4), 10 mM CHAPS, 20% v/v glycerol, 1 mM EDTA and reducing by adding a few grains of sodium dithionite. A baseline of zero absorbance was recorded between 500 and 400 nm, then the sample cuvette was bubbled under a steady stream of CO for about 1 minute. A spectrum was then recorded and the yield of spectrally active CYP3A4/1 culture determined. At this stage, an aliquot of whole cells was withdrawn for metabolism studies. […] The CYP3A4 and reductase content of the membranes was determined. The yield of active reductase was evaluated by a spectrophotometric assay, as follows. To 990 μl 50 μM cytochrome c in 0.3 M potassium phosphate buffer (pH 7.7), 1-10 μg membrane protein was added, and a baseline recorded. 50 μM NADPH was added and ΔA550 nm was recorded over time. To determine the P450 contents of membranes, spectra were obtained as for whole cells.

bacterially-expressed CYP3A4: reconstituted system containing bacterially-expressed CYP3A4, Gillam et al (1993)
turnover rates, testosterone 6β-hydroxylation (CYP3A4 [1]): up to 10 nmol 6β-hydroxytestosterone/minute/nmol P450

ompA-CYP3A4: CYP3A4 fused at its N-terminus to the bacterial ompA leader sequence
turnover number for the 6β-hydroxylation of testosterone (CYP3A4 [2]): 3.2 min⁻¹

17α-CYP3A4 (optimised CYP3A4 expressed from NF14 / pB216) (from UniProt P08684 1-503) (enzyme)
nifedipine oxidase turnover, JM109 pB216 whole cells [3]: 15.2 min^-1
testosterone 6β-hydroxylase turnover, JM109 pB216 whole cells [3]: 17.3 min^-1
testosterone 6β-hydroxylase turnover, JM109 NF14 whole cells (CYP3A4 alone) [4]: < 0.5 min⁻¹

B1: 17α-CYP2A6 (protein)
chain: MLASGMLLVALLVCLTVMVLMSVWQQRKSKGKLPPGPTPLPFIGNYLQLNTEQMYNSLMKISERYGPVFTIHLGPRRVVVLCGHDAVREALVDQAEEFSGRGEQATFDWVFKGYGVVFSNGERAKQLRRFSIATLRDFGVGKRGIEERIQEEAGFLIDALRGTGGANIDPTFFLSRTVSNVISSIVFGDRFDYKDKEFLSLLRMMLGIFQFTSTSTGQLYEMFSSVMKHLPGPQQQAFQLLQGLEDFIAKKVEHNQRTLDPNSPRDFIDSFLIRMQEEEKNPNTEFYLKNLVMTTLNLFIGGTETVSTTLRYGFLLLMKHPEVEAKVHEEIDRVIGKNRQPKFEDRAKMPYMEAVIHEIQRFGDVIPMSLARRVKKDTKFRDFFLPKGTEVYPMLGSVLRDPSFFSNPQDFNPQHFLNEKGQFKKSDAFVPFSIGKRNCFGEGLARMELFLFFTTVMQNFRLKSSQSPKDIDVSPKHVGFATIPRNYTMSFLPR
coumarin 7-hydroxylase activity, shocked cells (nmol/min/nmol P450) [3]: 0.75

B2: ompA-CYP2A6 (enzyme, human)
chain: MLASGMLLVALLVCLTVMVLMSVWQQRKSKGKLPPGPTPLPFIGNYLQLNTEQMYNSLMKISERYGPVFTIHLGPRRVVVLCGHDAVREALVDQAEEFSGRGEQATFDWVFKGYGVVFSNGERAKQLRRFSIATLRDFGVGKRGIEERIQEEAGFLIDALRGTGGANIDPTFFLSRTVSNVISSIVFGDRFDYKDKEFLSLLRMMLGIFQFTSTSTGQLYEMFSSVMKHLPGPQQQAFQLLQGLEDFIAKKVEHNQRTLDPNSPRDFIDSFLIRMQEEEKNPNTEFYLKNLVMTTLNLFIGGTETVSTTLRYGFLLLMKHPEVEAKVHEEIDRVIGKNRQPKFEDRAKMPYMEAVIHEIQRFGDVIPMSLARRVKKDTKFRDFFLPKGTEVYPMLGSVLRDPSFFSNPQDFNPQHFLNEKGQFKKSDAFVPFSIGKRNCFGEGLARMELFLFFTTVMQNFRLKSSQSPKDIDVSPKHVGFATIPRNYTMSFLPR
coumarin 7-hydroxylase activity, shocked cells (nmol/min/nmol P450) [5]: < 0.02

B3: ompA(+2)-CYP2A6 (enzyme, human)
chain: APMLASGMLLVALLVCLTVMVLMSVWQQRKSKGKLPPGPTPLPFIGNYLQLNTEQMYNSLMKISERYGPVFTIHLGPRRVVVLCGHDAVREALVDQAEEFSGRGEQATFDWVFKGYGVVFSNGERAKQLRRFSIATLRDFGVGKRGIEERIQEEAGFLIDALRGTGGANIDPTFFLSRTVSNVISSIVFGDRFDYKDKEFLSLLRMMLGIFQFTSTSTGQLYEMFSSVMKHLPGPQQQAFQLLQGLEDFIAKKVEHNQRTLDPNSPRDFIDSFLIRMQEEEKNPNTEFYLKNLVMTTLNLFIGGTETVSTTLRYGFLLLMKHPEVEAKVHEEIDRVIGKNRQPKFEDRAKMPYMEAVIHEIQRFGDVIPMSLARRVKKDTKFRDFFLPKGTEVYPMLGSVLRDPSFFSNPQDFNPQHFLNEKGQFKKSDAFVPFSIGKRNCFGEGLARMELFLFFTTVMQNFRLKSSQSPKDIDVSPKHVGFATIPRNYTMSFLPR
coumarin 7-hydroxylase activity, membranes [6]: 1
coumarin 7-hydroxylase activity, shocked cells (nmol/min/nmol P450) [5]: 0.29

B4: pelB-reductase: human P450 reductase fused at its N-terminus to the pelB leader sequence (protein)
chain: GDSHVDTSSTVSEAVAEEVSLFSMTDMILFSLIVGLLTYWFLFRKKKEEVPEFTKIQTLTSSVRESSFVEKMKKTGRNIIVFYGSQTGTAEEFANRLSKDAHRYGMRGMSADPEEYDLADLSSLPEIDNALVVFCMATYGEGDPTDNAQDFYDWLQETDVDLSGVKFAVFGLGNKTYEHFNAMGKYVDKRLEQLGAQRIFELGLGDDDGNLEEDFITWREQFWPAVCEHFGVEATGEESSIRQYELVVHTDIDAAKVYMGEMGRLKSYENQKPPFDAKNPFLAAVTTNRKLNQGTERHLMHLELDISDSKIRYESGDHVAVYPANDSALVNQLGKILGADLDVVMSLNNLDEESNKKHPFPCPTSYRTALTYYLDITNPPRTNVLYELAQYASEPSEQELLRKMASSSGEGKELYLSWVVEARRHILAILQDCPSLRPPIDHLCELLPRLQARYYSIASSSKVHPNSVHICAVVVEYETKAGRINKGVATNWLRAKEPAGENGGRALVPMFVRKSQFRLPFKATTPVIMVGPGTGVAPFIGFIQERAWLRQQGKEVGETLLYYGCRRSDEDYLYREELAQFHRDGALTQLNVAFSREQSHKVYVQHLLKQDREHLWKLIEGGAHIYVCGDARNMARDVQNTFYDIVAELGAMEHAQAVDYIKKLMTKGRYSLDVWS
modifications: left off: small tags and cut ends
reductase activity compared to the native P450 reductase (P450 reductase): almost ten fold higher
